Reference: article PMC12416549 (2024)

T1: TNFR1 (Homo sapiens, UniProt P19438)
T1 chain: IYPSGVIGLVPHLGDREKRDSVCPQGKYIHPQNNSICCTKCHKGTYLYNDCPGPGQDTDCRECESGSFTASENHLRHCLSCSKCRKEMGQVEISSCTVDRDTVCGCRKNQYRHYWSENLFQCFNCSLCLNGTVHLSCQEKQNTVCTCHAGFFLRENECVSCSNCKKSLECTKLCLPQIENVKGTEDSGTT

B1: E54V (designed binder)
chain: SMEEEVEKAAKEYEKKKKEAIEKHLEKLKAKDKEAAERFLKELEEAAKEYAKDVAKTMSEEEAKRRAKKYKEKVLLSELSEEEQKEIKEAEEKLVRTILKYVEEAAK
B2: A105S (designed binder)
chain: SMEEEVEKAAKEYEKKKKEAIEKHLEKLKAKDKEAAERFLKELEEAAKEYAKDEAKTMSEEEAKRRAKKYKEKVLLSELSEEEQKEIKEAEEKLVRTILKYVEESAK
B3: L99G (designed binder)
chain: SMEEEVEKAAKEYEKKKKEAIEKHLEKLKAKDKEAAERFLKELEEAAKEYAKDEAKTMSEEEAKRRAKKYKEKVLLSELSEEEQKEIKEAEEKLVRTIGKYVEEAAK
B4: E62V (designed binder)
chain: SMEEEVEKAAKEYEKKKKEAIEKHLEKLKAKDKEAAERFLKELEEAAKEYAKDEAKTMSEEVAKRRAKKYKEKVLLSELSEEEQKEIKEAEEKLVRTILKYVEEAAK
B5: L75F (designed binder)
chain: SMEEEVEKAAKEYEKKKKEAIEKHLEKLKAKDKEAAERFLKELEEAAKEYAKDEAKTMSEEEAKRRAKKYKEKVFLSELSEEEQKEIKEAEEKLVRTILKYVEEAAK
B6: A36Q (designed binder)
chain: SMEEEVEKAAKEYEKKKKEAIEKHLEKLKAKDKEAQERFLKELEEAAKEYAKDEAKTMSEEEAKRRAKKYKEKVLLSELSEEEQKEIKEAEEKLVRTILKYVEEAAK
B7: E19Q (designed binder)
chain: SMEEEVEKAAKEYEKKKKQAIEKHLEKLKAKDKEAAERFLKELEEAAKEYAKDEAKTMSEEEAKRRAKKYKEKVLLSELSEEEQKEIKEAEEKLVRTILKYVEEAAK
B8: E91T (designed binder)
chain: SMEEEVEKAAKEYEKKKKEAIEKHLEKLKAKDKEAAERFLKELEEAAKEYAKDEAKTMSEEEAKRRAKKYKEKVLLSELSEEEQKEIKEATEKLVRTILKYVEEAAK
B9: A47T (designed binder)
chain: SMEEEVEKAAKEYEKKKKEAIEKHLEKLKAKDKEAAERFLKELEEATKEYAKDEAKTMSEEEAKRRAKKYKEKVLLSELSEEEQKEIKEAEEKLVRTILKYVEEAAK
B10: E91D (designed binder)
chain: SMEEEVEKAAKEYEKKKKEAIEKHLEKLKAKDKEAAERFLKELEEAAKEYAKDEAKTMSEEEAKRRAKKYKEKVLLSELSEEEQKEIKEADEKLVRTILKYVEEAAK
B11: L40H (designed binder)
chain: SMEEEVEKAAKEYEKKKKEAIEKHLEKLKAKDKEAAERFHKELEEAAKEYAKDEAKTMSEEEAKRRAKKYKEKVLLSELSEEEQKEIKEAEEKLVRTILKYVEEAAK
B12: Y70V (designed binder)
chain: SMEEEVEKAAKEYEKKKKEAIEKHLEKLKAKDKEAAERFLKELEEAAKEYAKDEAKTMSEEEAKRRAKKVKEKVLLSELSEEEQKEIKEAEEKLVRTILKYVEEAAK
B13: Y101W (designed binder)
chain: SMEEEVEKAAKEYEKKKKEAIEKHLEKLKAKDKEAAERFLKELEEAAKEYAKDEAKTMSEEEAKRRAKKYKEKVLLSELSEEEQKEIKEAEEKLVRTILKWVEEAAK
B14: K73R (designed binder)
chain: SMEEEVEKAAKEYEKKKKEAIEKHLEKLKAKDKEAAERFLKELEEAAKEYAKDEAKTMSEEEAKRRAKKYKERVLLSELSEEEQKEIKEAEEKLVRTILKYVEEAAK
B15: E103Q (designed binder)
chain: SMEEEVEKAAKEYEKKKKEAIEKHLEKLKAKDKEAAERFLKELEEAAKEYAKDEAKTMSEEEAKRRAKKYKEKVLLSELSEEEQKEIKEAEEKLVRTILKYVQEAAK
B16: A90E (designed binder)
chain: SMEEEVEKAAKEYEKKKKEAIEKHLEKLKAKDKEAAERFLKELEEAAKEYAKDEAKTMSEEEAKRRAKKYKEKVLLSELSEEEQKEIKEEEEKLVRTILKYVEEAAK
B17: R38T (designed binder)
chain: SMEEEVEKAAKEYEKKKKEAIEKHLEKLKAKDKEAAETFLKELEEAAKEYAKDEAKTMSEEEAKRRAKKYKEKVLLSELSEEEQKEIKEAEEKLVRTILKYVEEAAK
B18: D32P (designed binder)
chain: SMEEEVEKAAKEYEKKKKEAIEKHLEKLKAKPKEAAERFLKELEEAAKEYAKDEAKTMSEEEAKRRAKKYKEKVLLSELSEEEQKEIKEAEEKLVRTILKYVEEAAK
B19: A10D (designed binder)
chain: SMEEEVEKADKEYEKKKKEAIEKHLEKLKAKDKEAAERFLKELEEAAKEYAKDEAKTMSEEEAKRRAKKYKEKVLLSELSEEEQKEIKEAEEKLVRTILKYVEEAAK
B20: A90M (designed binder)
chain: SMEEEVEKAAKEYEKKKKEAIEKHLEKLKAKDKEAAERFLKELEEAAKEYAKDEAKTMSEEEAKRRAKKYKEKVLLSELSEEEQKEIKEMEEKLVRTILKYVEEAAK
B21: A46Q (designed binder)
chain: SMEEEVEKAAKEYEKKKKEAIEKHLEKLKAKDKEAAERFLKELEEQAKEYAKDEAKTMSEEEAKRRAKKYKEKVLLSELSEEEQKEIKEAEEKLVRTILKYVEEAAK
B22: K29H (designed binder)
chain: SMEEEVEKAAKEYEKKKKEAIEKHLEKLHAKDKEAAERFLKELEEAAKEYAKDEAKTMSEEEAKRRAKKYKEKVLLSELSEEEQKEIKEAEEKLVRTILKYVEEAAK
B23: K18T (designed binder)
chain: SMEEEVEKAAKEYEKKKTEAIEKHLEKLKAKDKEAAERFLKELEEAAKEYAKDEAKTMSEEEAKRRAKKYKEKVLLSELSEEEQKEIKEAEEKLVRTILKYVEEAAK
B24: K16L (designed binder)
chain: SMEEEVEKAAKEYEKLKKEAIEKHLEKLKAKDKEAAERFLKELEEAAKEYAKDEAKTMSEEEAKRRAKKYKEKVLLSELSEEEQKEIKEAEEKLVRTILKYVEEAAK
B25: A35H (designed binder)
chain: SMEEEVEKAAKEYEKKKKEAIEKHLEKLKAKDKEHAERFLKELEEAAKEYAKDEAKTMSEEEAKRRAKKYKEKVLLSELSEEEQKEIKEAEEKLVRTILKYVEEAAK
B26: K11R (designed binder)
chain: SMEEEVEKAAREYEKKKKEAIEKHLEKLKAKDKEAAERFLKELEEAAKEYAKDEAKTMSEEEAKRRAKKYKEKVLLSELSEEEQKEIKEAEEKLVRTILKYVEEAAK
B27: K41D (designed binder)
chain: SMEEEVEKAAKEYEKKKKEAIEKHLEKLKAKDKEAAERFLDELEEAAKEYAKDEAKTMSEEEAKRRAKKYKEKVLLSELSEEEQKEIKEAEEKLVRTILKYVEEAAK
B28: E22F (designed binder)
chain: SMEEEVEKAAKEYEKKKKEAIFKHLEKLKAKDKEAAERFLKELEEAAKEYAKDEAKTMSEEEAKRRAKKYKEKVLLSELSEEEQKEIKEAEEKLVRTILKYVEEAAK
B29: S59H (designed binder)
chain: SMEEEVEKAAKEYEKKKKEAIEKHLEKLKAKDKEAAERFLKELEEAAKEYAKDEAKTMHEEEAKRRAKKYKEKVLLSELSEEEQKEIKEAEEKLVRTILKYVEEAAK
B30: L40G (designed binder)
chain: SMEEEVEKAAKEYEKKKKEAIEKHLEKLKAKDKEAAERFGKELEEAAKEYAKDEAKTMSEEEAKRRAKKYKEKVLLSELSEEEQKEIKEAEEKLVRTILKYVEEAAK
B31: E12A (designed binder)
chain: SMEEEVEKAAKAYEKKKKEAIEKHLEKLKAKDKEAAERFLKELEEAAKEYAKDEAKTMSEEEAKRRAKKYKEKVLLSELSEEEQKEIKEAEEKLVRTILKYVEEAAK
B32: E7K (designed binder)
chain: SMEEEVKKAAKEYEKKKKEAIEKHLEKLKAKDKEAAERFLKELEEAAKEYAKDEAKTMSEEEAKRRAKKYKEKVLLSELSEEEQKEIKEAEEKLVRTILKYVEEAAK
B33: K17R (designed binder)
chain: SMEEEVEKAAKEYEKKRKEAIEKHLEKLKAKDKEAAERFLKELEEAAKEYAKDEAKTMSEEEAKRRAKKYKEKVLLSELSEEEQKEIKEAEEKLVRTILKYVEEAAK

Target: T1, TNFR1
Test: yeast display SC50

Going from B1 to B2, the “apparent Kd (screen)” value falls from 20200 pM to 956 pM (21-fold).

Compared with B3, B4 is 1.9-fold lower in “apparent Kd (screen)” value: 5310 pM for the first, 2730 pM for the second.

B5 and B6 are within 1.5-fold of each other in “apparent Kd (screen)” value: 869 pM for the first, 653 pM for the second.

First: B7
Second: B8
The “apparent Kd (screen)” value of the first is 14-fold lower: 490 pM for the first, 7070 pM for the second.

B9 and B10 are within 1.5-fold of each other in “apparent Kd (screen)” value: 653 pM for the first, 446 pM for the second.

First: B11
Second: B12
The “apparent Kd (screen)” value of the first is 45-fold lower: 490 pM for the first, 22200 pM for the second.

Compared with B13, B14 is 3.4-fold higher in “apparent Kd (screen)” value: 2730 pM for the first, 9410 pM for the second.

B15 and B16 are the same in “apparent Kd (screen)” value: 490 pM for the first, 490 pM for the second.

First: B17
Second: B18
The “apparent Kd (screen)” value of the first is 4.2-fold lower: 2050 pM for the first, 8560 pM for the second.

B19 and B20 are within 1.5-fold of each other in “apparent Kd (screen)” value: 490 pM for the first, 446 pM for the second.

B21 and B22 are within 1.5-fold of each other in “apparent Kd (screen)” value: 539 pM for the first, 593 pM for the second.

Going from B23 to B24, the “apparent Kd (screen)” value falls from 1160 pM to 446 pM (2.6-fold).

First: B25
Second: B26
The “apparent Kd (screen)” value of the first is 1.8-fold higher: 1050 pM for the first, 593 pM for the second.

B27 and B28 are within 1.5-fold of each other in “apparent Kd (screen)” value: 539 pM for the first, 593 pM for the second.

B29 and B30 are within 1.5-fold of each other in “apparent Kd (screen)” value: 593 pM for the first, 446 pM for the second.

First: B31
Second: B32
The “apparent Kd (screen)” value of the first is 9.8-fold lower: 446 pM for the first, 4390 pM for the second.

B33 was tested, and the “apparent Kd (screen)” value was 653 pM.
